In publication PMC12700558, “Aggregation shifts amyloid-β peptides from synaptogenic to synaptotoxic” (The Journal of Clinical Investigation, 2025):

Key:
human neurons = test: NLS-TdTomato cytotoxicity assay (cytoplasmic leakage of NLS-TdTomato); settings: 5% DMSO or 200 μM hydrogen peroxide, each applied for 4 hours, DIV30
Method: The MTT assay employs yellow tetrazolium dye that is reduced to a purple formazan crystal by viable cells with active metabolism ([21]). Because it measures metabolic activity in all cells, this assay serves as a broad cytotoxicity read out for the entire glia/neuron coculture system. The amount of formazan produced is then measured because it is directly proportional to the number of viable cells ([21]) (Figure 1B and Supplemental Figure 1A). The nuclear localization TdTomato assay, conversely, enables monitoring of cellular stress by tracking the localization of fluorescent TdTomato fused to a nuclear localization signal. Under healthy conditions, the nuclear localization signal directs the NLS-TdTomato to the nucleus. When toxicity in a cell causes a reduction in ATP levels, NLS-TdTomato leaks out of the nucleus into the cytoplasm, which we scored as an index of toxicity (Figure 1, C and D, and Supplemental Figure 1, B–D). Because the reporter is expressed only in neurons, this assay specifically assesses neurotoxicity within the coculture. We developed this assay because it can be performed on live cells and reflects decreases in ATP levels in these cells. […]
To assess neuronal cytotoxicity induced by Aβ peptides, we employed a novel Td-Tomato cytotoxicity assay that we developed. […] Neurons displaying cytoplasmic Td-Tomato were counted as indicators of cytotoxicity. […]

[1] = system: human neurons cocultured with mouse glia; test: Aβ42 fractionation experiment, MTT assay of supernatant and pellet; format: cell-based; settings: fractions of Aβ42 preaggregated at 37°C for 24 hours, 20,000g 15 minutes; 0.2 μM chronic, DIV45
Method: Aggregation mixtures were centrifuged at 20,000g for 15 minutes at 4°C. The supernatant (enriched in monomer, small oligomers and residual larger species) was removed without disturbing the pellet. The pellet (large aggregates and high-molecular-weight oligomers) was resuspended in DMSO to the original volume. Supernatant and the resuspended pellet were administered to neurons, independently, at the concentration of 0.2 μM following the same protocol of administration used in this study (Figure 1A) and described above.

Row | Compound | Validation of the NLS-TdTomato assay: nuclear-to-cytoplasmic shift of NLS-TdTomato (in words) (human neurons) | Loss of viability, MTT assay (in words) [1]
1 | OO [hydrogen peroxide] | rapidly induced the nuclear-to-cytoplasmic shift of NLS-TdTomato | 
2 | pellet: pellet of centrifuged preaggregated Aβ42, large aggregates and high-molecular-weight oligomers, resuspended in DMSO |  | same loss of viability
3 | supernatant: supernatant of centrifuged preaggregated Aβ42, enriched in monomer, small oligomers and residual larger species |  | same loss of viability
